In US20140220107A1 one finds OD 450 nm data, which are given here for two substances.

For assay [1], the target named is HIV-1 subtype C C06980v1c3 gp160 (HIV-1 subtype C isolate C06980v1c3). The assay can be described thus: gp160 antigen capture ELISA, 2F5 as capture antibody; cell lysate of transfected HEK293 cells, 48 h (negative control 0.150).
Assay [2] concerns the target HIV-1 subtype C C06838v1c48 gp160 DC (HIV-1 subtype C isolate C06838v1c48). The assay is described as above.
Assay [3] deals with HIV-1 subtype C C06980v0c22 gp160 (HIV-1 subtype C isolate C06980v0c22). The description is as above.
For assay [4], the target named is HIV-1 subtype C C3728v2c6 gp160 (HIV-1 subtype C isolate C3728v2c6). The description is as above.
Assay [5] addresses HIV-1 subtype C C06838v1c48 gp160 (HIV-1 subtype C isolate C06838v1c48). Described as above.
The target of assay [6] is HIV-1 Ba-L gp145 (HIV-1 Ba-L (subtype B)). The description is as above.
The target in assay [7] is HIV-1 subtype C C3728v2c6 gp160 DC (HIV-1 subtype C isolate C3728v2c6). Described as above.
The target in assay [8] is HIV-1 subtype C C06980v0c22 gp160 DC (HIV-1 subtype C isolate C06980v0c22). Described as above.
Assay [9] addresses HIV-1 subtype C C06980v1c3 gp160 DC (HIV-1 subtype C isolate C06980v1c3). Described as above.
For assay [10], the target named is HIV-1 subtype C C06980v1c3 gp160 (HIV-1 subtype C isolate C06980v1c3). The assay can be described thus: gp160 antigen capture ELISA, 2F5 as capture antibody; media of transfected HEK293 cells, 48 h (negative control 0.135).
For assay [11], the target named is HIV-1 subtype C C06838v1c48 gp160 DC (HIV-1 subtype C isolate C06838v1c48). The description is as above.
Assay [12] has as its target HIV-1 subtype C C06980v0c22 gp160 (HIV-1 subtype C isolate C06980v0c22). The description is as above.
The target in assay [13] is HIV-1 subtype C C3728v2c6 gp160 (HIV-1 subtype C isolate C3728v2c6). The description is as above.
The target of assay [14] is HIV-1 subtype C C06838v1c48 gp160 (HIV-1 subtype C isolate C06838v1c48). The description is as above.
Assay [15] deals with HIV-1 Ba-L gp145 (HIV-1 Ba-L (subtype B)). Described as above.
Assay [16] concerns the target HIV-1 subtype C C3728v2c6 gp160 DC (HIV-1 subtype C isolate C3728v2c6). The description is as above.
Assay [17] addresses HIV-1 subtype C C06980v0c22 gp160 DC (HIV-1 subtype C isolate C06980v0c22). The description is as above.
The target in assay [18] is HIV-1 subtype C C06980v1c3 gp160 DC (HIV-1 subtype C isolate C06980v1c3). The assay is described as above.
In assay [19] the target is HIV-1 subtype C C06980v1c3 gp160 (HIV-1 subtype C isolate C06980v1c3). The assay can be described thus: gp160 antigen capture ELISA, 4E10 as capture antibody; media of transfected HEK293 cells, 48 h (negative control 0.123). (An ELISA detects its analyte on a solid surface through an enzyme-linked reagent.)
For assay [20], the target named is HIV-1 subtype C C06838v1c48 gp160 DC (HIV-1 subtype C isolate C06838v1c48). The assay is described as above.
Assay [21] deals with HIV-1 subtype C C06980v0c22 gp160 (HIV-1 subtype C isolate C06980v0c22). Described as above.
Assay [22] deals with HIV-1 subtype C C3728v2c6 gp160 (HIV-1 subtype C isolate C3728v2c6). Described as above.
The target in assay [23] is HIV-1 subtype C C06838v1c48 gp160 (HIV-1 subtype C isolate C06838v1c48). The description is as above.
For assay [24], the target named is HIV-1 Ba-L gp145 (HIV-1 Ba-L (subtype B)). The description is as above.
Assay [25] concerns the target HIV-1 subtype C C3728v2c6 gp160 DC (HIV-1 subtype C isolate C3728v2c6). The assay is described as above.
Assay [26] addresses HIV-1 subtype C C06980v0c22 gp160 DC (HIV-1 subtype C isolate C06980v0c22). The description is as above.
Assay [27] has as its target HIV-1 subtype C C06980v1c3 gp160 DC (HIV-1 subtype C isolate C06980v1c3). The description is as above.
For assay [28], the target named is HIV-1 subtype C C06980v1c3 gp160 (HIV-1 subtype C isolate C06980v1c3). The assay can be described thus: gp160 antigen capture ELISA, 4E10 as capture antibody; cell lysate of transfected HEK293 cells, 48 h (negative control 0.156).
Assay [29] concerns the target HIV-1 subtype C C06838v1c48 gp160 DC (HIV-1 subtype C isolate C06838v1c48). Described as above.
Assay [30] has as its target HIV-1 subtype C C06980v0c22 gp160 (HIV-1 subtype C isolate C06980v0c22). The description is as above.
Assay [31] concerns the target HIV-1 subtype C C3728v2c6 gp160 (HIV-1 subtype C isolate C3728v2c6). The description is as above.
Assay [32] concerns the target HIV-1 subtype C C06838v1c48 gp160 (HIV-1 subtype C isolate C06838v1c48). The assay is described as above.
The target in assay [33] is HIV-1 Ba-L gp145 (HIV-1 Ba-L (subtype B)). The assay is described as above.
The target of assay [34] is HIV-1 subtype C C3728v2c6 gp160 DC (HIV-1 subtype C isolate C3728v2c6). Described as above.
In assay [35] the target is HIV-1 subtype C C06980v0c22 gp160 DC (HIV-1 subtype C isolate C06980v0c22). Described as above.
The target of assay [36] is HIV-1 subtype C C06980v1c3 gp160 DC (HIV-1 subtype C isolate C06980v1c3). Described as above.

With “2F5 human monoclonal antibody to the gp41 MPER”, the OD 450 nm was determined as 0.399 OD 450 nm in [1]; 0.506 OD 450 nm in [2]; 1.46 OD 450 nm in assay [3]; 0.781 OD 450 nm in assay [4]; 0.53 OD 450 nm in assay [5]; 2.64 OD 450 nm in [6]. In addition, the OD 450 nm in assay [7] is 0.829 OD 450 nm; in [8], 1.21 OD 450 nm; in [9] it was 0.446 OD 450 nm; in assay [10], 0.2 OD 450 nm; in assay [11], 0.155 OD 450 nm; in assay [12], 0.344 OD 450 nm. The OD 450 nm in [13] amounted to 0.198 OD 450 nm; in assay [14], 0.146 OD 450 nm; in [15] it was 2.27 OD 450 nm; in assay [16], 0.219 OD 450 nm; in [17], 0.298 OD 450 nm; in [18] it was 0.179 OD 450 nm.
For “4E10 human monoclonal antibody to the gp41 MPER”, the OD 450 nm in assay [19] was determined as 0.926 OD 450 nm; in assay [20], 0.162 OD 450 nm; in assay [21], 2.53 OD 450 nm; in assay [22] it was 0.589 OD 450 nm; in assay [23] it was 0.146 OD 450 nm; in assay [24] it was 2.42 OD 450 nm. Also, the OD 450 nm in [25] is 0.681 OD 450 nm; in [26], 2.61 OD 450 nm; in assay [27] it was 1.1 OD 450 nm; in assay [28], 2.72 OD 450 nm; in [29], 2.7 OD 450 nm; in assay [30], 2.74 OD 450 nm. The OD 450 nm in [31] is 2.78 OD 450 nm; in assay [32], 2.65 OD 450 nm; in [33] it was 2.55 OD 450 nm; in [34], 2.65 OD 450 nm; in assay [35] it was 2.62 OD 450 nm; in assay [36], 2.59 OD 450 nm.
